Assay results from patent US20240360223A1 (DRAGONFLY THERAPEUTICS, published 2024).
Read-outs that look alike come from different tables or passages of the source.

Key:
[1] = target: T1, human BAFF-R expressed on cells (human, UniProt Q96RJ3 1-184); assay: flow cytometry on hBAFFR-CHO cells, anti-mouse (H+L)-PE
T1 construct: Cell surface BAFF-R, endogenous on B cell lines and primary B cells or overexpressed on isogenic CHO cells; also called hBAFF-R; hBAFF-R-CHO

[2] = target: T2, human NKG2D expressed on cells (human, UniProt P26718 1-216); assay: flow cytometry on KHYG-1 cells (no CD16), MFI
T2 construct: whole, on cells; also called NKG2D on KHYG-1 cells; NKG2D-positive NK cells and CD8+ T cells
T2 sequence (looked up): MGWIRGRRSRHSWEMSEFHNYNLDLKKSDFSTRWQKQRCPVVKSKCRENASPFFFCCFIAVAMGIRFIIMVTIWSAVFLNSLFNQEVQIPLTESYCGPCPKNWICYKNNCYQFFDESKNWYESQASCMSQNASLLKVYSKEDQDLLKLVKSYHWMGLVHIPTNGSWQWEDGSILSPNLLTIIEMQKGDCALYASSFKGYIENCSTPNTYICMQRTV

[3] = target: T1, human BAFF-R expressed on cells; assay: flow cytometry, BJAB cells
[4] = target: T1, human BAFF-R expressed on cells; assay: flow cytometry, human BAFF-R+ isogenic CHO
Description: Isogenic cell lines overexpressing human and cynomolgus BAFF-R were developed from CHO cells.

[5] = target: T1, human BAFF-R expressed on cells; assay: flow cytometry, human BAFF-R CHO cells
Description: Isogenic cell lines overexpressing human and cynomolgus BAFF-R on the backbone of CHO cell line were designed.

[6] = target: T1, human BAFF-R expressed on cells; assay: flow cytometry, Rs4;11 cells
[7] = target: T1, human BAFF-R expressed on cells; assay: flow cytometry, RL cells
[8] = target: T1, human BAFF-R expressed on cells; assay: flow cytometry, CHO-hBAFF-R cells
[9] = target: T1, human BAFF-R expressed on cells; assay: flow cytometry, SUDHL-6 cells
[10] = target: T1, human BAFF-R expressed on cells; assay: flow cytometry, Jeko-1 cells
[11] = target: T1, human BAFF-R expressed on cells; assay: flow cytometry, Raji cells
[12] = target: T1, human BAFF-R expressed on cells; assay: blocking of BAFF-biotin on hBAFF-R CHO cells
[13] = target: T3, cynomolgus monkey BAFF-R expressed on cells (cynomolgus monkey); assay: flow cytometry, cyno BAFF-R CHO cells
T3 construct: whole, on cells; also called cBAFF-R; cynoBAFF-R

[14] = target: T1, human BAFF-R expressed on cells; assay: cell-based or functional assay
[15] = target: T1, human BAFF-R expressed on cells; assay: flow cytometry, BAFF-R CHO cells; isogenic CHO cells; human and cynomolgus not told apart
[16] = target: T1, human BAFF-R expressed on cells; assay: flow cytometry, human BAFF-R CHO cells; remark: listed apart in the source
[17] = target: T1, human BAFF-R expressed on cells; assay: flow cytometry, human BAFF-R CHO cells; remark: listed apart in the source
[18] = target: T1, human BAFF-R expressed on cells; assay: blocking of BAFF-biotin on hBAFF-R CHO cells, flow cytometry
Experimental: Briefly, CHO cells expressing human BAFF-R were harvested, washed in cold FACS buffer, and seeded at a density of 100,000 cells per well. Test articles were diluted in FACS buffer, and 50 μL of diluted multispecific binding protein or mAb was added to cells, incubated on ice for 60 minutes, then washed with FACS buffer. […] Cells were incubated with 100 μL of 1:200 streptavidin-PE diluted in FACS buffer and incubated on ice for 30 minutes then washed with FACS buffer. Cells were then incubated in 100 μL of 1:1,000 dilution of live/dead dye in PBS for 15 minutes, then washed with FACS buffer, and fixed. After incubation, cells were washed with FACS buffer and resuspended in FACS buffer for analysis with flow cytometry. Median fluorescent intensity (MFI) of each sample and the secondary-only control was calculated. […] Data were fit to a four-parameter non-linear regression curve using GraphPad Prism.

[19] = target: T3, cynomolgus monkey BAFF-R expressed on …; assay: flow cytometry, cyno BAFF-R CHO cells; remark: listed apart in the source
[20] = target: T1, human BAFF-R expressed on cells; assay: flow cytometry, BAFF-R-CHO cells
[21] = target: T1, human BAFF-R expressed on cells; assay: flow cytometry on hBAFFR-CHO cells, anti-mouse IgG(H+L)-PE
[22] = target: T1, human BAFF-R expressed on cells; assay: flow cytometry blocking assay on hBAFFR-CHO cells; blocked ligand: 20 nM BAFF-biotin
[23] = target: T1, human BAFF-R expressed on cells; assay: as above; remark: listed apart in the source
[24] = target: T1, human BAFF-R expressed on cells; assay: flow cytometry, RAJI cells
Experimental: The BAFF-R positive human B lymphoblastoid RAJI cell line was used to assess TriNKET binding to cell surface BAFF-R. Certain BAFF-R TriNKETs in the 2-Fab and F3′ formats, as described in the “exemplary multispecific binding proteins” subsection above, were diluted and incubated with Raji cells. Binding patterns of TriNKETs and parental monoclonal antibodies were detected using a fluorophore conjugated anti-human IgG secondary antibody. The cells were then incubated with a fluorophore conjugated anti-human IgG secondary antibody and were analyzed by flow cytometry. The mean fluorescence intensity (MFI) values were normalized to secondary antibody only controls to obtain fold over background (FOB) values.

[25] = target: T1, human BAFF-R expressed on cells; assay: flow cytometry blocking assay on hBAFFR-CHO cells; blocked ligand: 20 nM BAFF-biotin; remark: listed apart in the source
[26] = target: T1, human BAFF-R expressed on cells; assay: blocking of BAFF-biotin on BAFF-R CHO cells
[27] = target: T1, human BAFF-R expressed on cells; assay: flow cytometry on hBAFFR-CHO cells
[28] = target: T3, cynomolgus monkey BAFF-R expressed on …; assay: flow cytometry on cBAFFR-CHO cells

B1: 10H7-C5 (antibody, V domains shown)
VH: EVQLVESGGGLVKPGGSLKLSCAASGFSFSRYAMSWVRQTPEKRLEWVATISDGGSYTHYRDNVKGRFTISRDNAKNNLNLQMSHLKSEDTAIYYCARNEMGLYFDYDVYAMDYWGQGTSVTVSS
VL: DIVMTQTPLSLPVSLGDQASISCRSSQSLLHSNGNTYLYWYLQKPGQSPKLLIHRVSNRFSGVPDRFGGSGSGTDFTLKIIRVEAEDLGVYFCFQGTHVPWTFGGGTKLEIK
notes: Mouse hybridoma mAb from DNA immunization; also called clone 10H7-C5
For B1, the “EC50 (read off the curve)” value [1] was 1 to 10 nM.

B2: 1B3-A7 (antibody, V domains shown)
VH: EVQLVESGGGLVKPGGSLKLSCVVSGFTFSNYAMSWVRQTPEKRLEWVATISDGGGYTYYPDSVKGRFTISRDNAKNNLYLQMSHLKSEDTAIYYCARDDLGGGNYVSSYFDVWGTGTTVTVSS
VL: DVVMTQTPLSLPVSPGDQASISCRSSQSLVHSNGNTYLYWYLQKPGQSPKLLIYRVSNRFSGVPDRFSGSGSGTDFTLKINRVEAEDLGVYFCFQGTHVPLTFGSGTKLELK
notes: Mouse hybridoma mAb from DNA immunization; also called clone 1B3-A7
With B2 the “EC50 (read off the curve)” value [1] was about 2 nM.

B3: Parental mAb (AB1753) (antibody, V domains shown)
VH: EVQLVQSGGGVVQPGRSLRLSCAASGFTFSSYGMHWVRQAPGKGLEWVAVIWYDASNKYYGDSVKGRFTISRDNSKNTLYLQMNSLRDEDTAVYYCARRFTHLRGQYIEDYGLDVWGQGTTVTVSS
VL: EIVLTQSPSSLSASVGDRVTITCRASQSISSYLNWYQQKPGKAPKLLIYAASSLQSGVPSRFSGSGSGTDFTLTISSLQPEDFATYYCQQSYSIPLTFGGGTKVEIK
notes: also called parental BAFF-R specific antibody
B3 was tested, and the binding result [2] was “no binding (tested: about 700 nM)”, the EC50 [3] was 0.18 nM and the “Max FOB” value [3] was 12 fold over background. For the same binder, the EC50 [4] was 0.39 nM, the “Max FOB” value [4] was 123 fold over background and the EC50 [5] was 0.4 nM. The “Max FOB” value [5] was 57 fold over background, the EC50 [6] was 0.06 nM and the “Max FOB” value [6] was 3 fold over background. The EC50 [7] was 0.14 nM, the “Max FOB” value [7] was 6 fold over background and the EC50 [8] was 0.39 nM. The “Max FOB” value [8] was 123 fold over background, the EC50 [9] was 0.19 nM and the “Max FOB” value [9] was 13 fold over background. The EC50 [10] was 0.07 nM, the “Max FOB” value [10] was 5 fold over background and the EC50 [11] was 0.1 nM.

B4: AB0369 (bispecific antibody, V domains shown)
VH: EVQLVQSGGGVVQPGRSLRLSCAASGFTFSSYGMHWVRQAPGKCLEWVAVIWYDGSNKYYGDSVKGRFTISRDNSKNTLYLQMNSLRDEDTAVYYCARRFTMLRGLIIEDYGMDVWGQGTTVTVSS
VL: not shown
notes: also called AB0369-001
With B4 the IC50 [12] was over 1000 nM, the EC50 [13] was 7.11 nM and the “KHYG-A-CD16Av mediated Cytolysis of Ramos cells EC50” value [14] was 0.64 nM. For the same binder, the EC50 [15] was about 10 nM, the EC50 [16] was 6.8 nM and the EC50 [17] was over 10 nM. The IC50 [18] was 488 nM, the EC50 [19] was over 15 nM and the EC50 [20] was over 10 nM.

B5: 3A1 (antibody, V domains shown)
VH: QVQLQQPGAELVKPGASVKLSCKASGYTFTSYWMHWVKQRPGQGLEWIGEIDPFDSYTNYNQNFKGKATLTVDKSSSTAYMLLSSLTSDDSAVYYCARERLRLWSYYFDYWGQGTTLTVSS
VL: DVVMTQTPLSLPVSLGDQASISCRSSQSIVHSNGNTYLEWYLQKPGQSPKLLIYKVSNRLSGVPDRFSGSGSGTDFTLKISRVEAEDLGVYYCFQGSHDPFTFGSGTKLEIK
notes: Mouse hybridoma mAb from DNA immunization; also called clone 3A1
B5 was tested, and the “EC50 (read off the curve)” value [21] was about 0.3 nM.

B6: 7G4 (antibody, V domains shown)
VH: QVQLQQPGAELVKPGASVKLSCKASGYTFTSYWMHWVKQRPGQGLEWIGEVDPSDSYTNYNQKFKGKATLTVDKSSSTAYILLSNLTSDDSAVYYCARERVRLWSYFFDYWGQGTTLTVSS
VL: DVVMTQTPLSLPVSLGDQASISCRSSQSIVHSNGNTYLEWYLQKPGQSPKLLIYKVSNRLSGVPDRFSGSGSGTDFTLKISRVEAEDLGVYYCFQGSHDPFTFGSGTKLEIK
notes: Mouse hybridoma mAb from DNA immunization; also called clone 7G4
In the case of B6, the “EC50 (read off the curve)” value [21] is reported as about 0.3 nM.

B7: Ianalumab-mAb (antibody, V domains shown)
VH: QVQLQQSGPGLVKPSQTLSLTCAISGDSVSSNSAAWGWIRQSPGRGLEWLGRIYYRSKWYNSYAVSVKSRITINPDTSKNQFSLQLNSVTPEDTAVYYCARYQWVPKIGVFDSWGQGTLVTVSS
VL: DIVLTQSPATLSLSPGERATLSCRASQFILPEYLSWYQQKPGQAPRLLIYGSSSRATGVPARFSGSGSGTDFTLTISSLEPEDFAVYYCQQFYSSPLTFGQGTKVEIK
notes: Parental control mAb; also called Ianalumab-based tool-mAb; Tool-mAb
For B7, the “IC50 (read off the curve)” value [22] was about 0.8 nM, the “IC50 (read off the curve)” value [23] was about 0.4 nM and the EC50 [24] was 0.003 nM. For the same binder, the “IC50 (read off the curve)” value [25] was about 0.4 nM, the IC50 [26] was 0.38 nM and the IC50 [18] was 0.5 nM. For the same binder, the “EC50 (read off the curve)” value [27] was about 0.5 nM and the “EC50 (read off the curve)” value [28] was about 0.4 nM.
